Assay results reported in US20080045450A1, “GLP-2 Derivatives” (priority 1996, published 2008).

Experiment: Helix content by circular dichroism (CD) at 222 nm in aqueous solution
Assay type: physicochemical
Source text: The size of the partially helical, micelle-like aggregates may be estimated by size-exclusion chromatography. Similarly, the apparent (critical micelle concentrations) CMC's of the peptides may be estimated from the concentration dependent fluorescence in the presence of appropriate dyes (e.g. Brito, R. & Vaz, W. (1986) Anal. Biochem. 152, 250-255).
For the GLP-2 derivatives forming partially structured micellar-like aggregates in aqueous solution the helix content remains constant above 30% at concentrations of 10 μM. The aggregated structured conformation is an inherent property of the derivative present in water or dilute aqueous buffer without the need for any additional structure-inducing components. Note that the CD signal is proportional to the average content of α-helix in the peptides, i.e., a CD value of −1 corresponds to 10% α-helix content under these conditions.

## native GLP-2: human glucagon-like peptide-2, a 33 amino acid residue peptide; parent peptide of the derivatives
At 500 μM concentration, in parallel with peptide self-association
  helix content: 30-35%
Starting value at low peptide concentration, before the increase seen with increasing concentration
  helix content: 10-15%
